Experimental findings from publication PMC12440807 are described below.

The target in the series is RNA polymerase II;RECQL5 (Sus scrofa domesticus?;Homo sapiens, UniProt A0A8D1DPV6;A0A0B8RVL1;P19387;O15514;I3LSI7;P61218;P62487;P52434;P36954;P52435;P6 …, |). In words: cryo-EM; phosphorylated Pol II; 2.8 A; Mg, Zn in model. The following applies: protein: native;recombinant; tags: none;His6-MBP, TEV-cleaved; copies: 1;1;1;1;1;1;1;1;1;1;1;1;1.
RNA polymerase II;RECQL5, sequence (O94762 whole entry, one chain of several): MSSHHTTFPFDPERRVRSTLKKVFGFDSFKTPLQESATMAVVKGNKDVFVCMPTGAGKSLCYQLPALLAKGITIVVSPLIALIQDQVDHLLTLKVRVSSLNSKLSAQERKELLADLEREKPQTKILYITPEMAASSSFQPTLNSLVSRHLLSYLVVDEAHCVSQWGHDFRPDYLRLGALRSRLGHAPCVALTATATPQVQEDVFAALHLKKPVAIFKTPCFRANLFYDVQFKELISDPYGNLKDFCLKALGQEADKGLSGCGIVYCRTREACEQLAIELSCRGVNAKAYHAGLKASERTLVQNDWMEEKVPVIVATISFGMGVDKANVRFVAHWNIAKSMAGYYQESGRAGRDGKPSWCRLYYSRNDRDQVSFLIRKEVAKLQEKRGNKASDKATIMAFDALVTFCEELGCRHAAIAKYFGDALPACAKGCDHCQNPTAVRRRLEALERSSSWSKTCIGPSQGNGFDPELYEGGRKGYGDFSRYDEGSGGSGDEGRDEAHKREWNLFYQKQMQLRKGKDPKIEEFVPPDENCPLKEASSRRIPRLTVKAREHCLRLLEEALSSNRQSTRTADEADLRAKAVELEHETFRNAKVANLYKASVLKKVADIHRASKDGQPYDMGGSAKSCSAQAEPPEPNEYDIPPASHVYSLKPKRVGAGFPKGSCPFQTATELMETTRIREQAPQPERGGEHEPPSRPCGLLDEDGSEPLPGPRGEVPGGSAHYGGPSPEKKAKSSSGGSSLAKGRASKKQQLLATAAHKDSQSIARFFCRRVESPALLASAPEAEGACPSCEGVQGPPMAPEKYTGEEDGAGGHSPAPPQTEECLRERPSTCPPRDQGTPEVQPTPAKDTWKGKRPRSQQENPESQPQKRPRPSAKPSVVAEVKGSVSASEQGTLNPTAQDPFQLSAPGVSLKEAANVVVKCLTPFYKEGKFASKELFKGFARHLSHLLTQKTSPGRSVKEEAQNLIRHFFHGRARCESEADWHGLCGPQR

B1: EC DNA-RNA scaffold (mixed)
DNA 1: GCTCCCAGCTCCCTGCTGGCTCCGAGTGGGTTCTGCCGCTCTCAATGG
DNA 2: CCATTGAGAGCGGCCCTTGTGTTCAGGAGCCAGCAGGGAGCTGGGAGC
RNA: GAGAGGGAACCCACU
With B1, the binding result is listed as “binds”.
